Earlier results, collected in publication PMC4152934.

Tests used:
AdipoR1 (Mus musculus) = AdipoR1 (Mus musculus) (UniProt Q91VH1)
AdipoR2 (Mus musculus) = AdipoR2 (Mus musculus) (UniProt Q8BQS5)
Sequence of UniProt Q8BQS5 (Q8BQS5 whole entry): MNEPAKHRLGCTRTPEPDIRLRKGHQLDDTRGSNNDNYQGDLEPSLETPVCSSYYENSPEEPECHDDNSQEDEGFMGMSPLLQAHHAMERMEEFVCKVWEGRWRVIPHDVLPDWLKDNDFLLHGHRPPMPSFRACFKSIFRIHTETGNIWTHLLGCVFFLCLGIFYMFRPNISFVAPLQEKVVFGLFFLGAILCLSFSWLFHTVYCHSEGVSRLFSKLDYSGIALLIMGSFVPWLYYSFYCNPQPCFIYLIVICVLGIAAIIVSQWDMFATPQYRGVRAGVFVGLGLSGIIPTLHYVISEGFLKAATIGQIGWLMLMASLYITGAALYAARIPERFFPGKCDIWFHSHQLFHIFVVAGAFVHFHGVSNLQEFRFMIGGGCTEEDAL

Sequence of UniProt Q91VH1 (Q91VH1 whole entry): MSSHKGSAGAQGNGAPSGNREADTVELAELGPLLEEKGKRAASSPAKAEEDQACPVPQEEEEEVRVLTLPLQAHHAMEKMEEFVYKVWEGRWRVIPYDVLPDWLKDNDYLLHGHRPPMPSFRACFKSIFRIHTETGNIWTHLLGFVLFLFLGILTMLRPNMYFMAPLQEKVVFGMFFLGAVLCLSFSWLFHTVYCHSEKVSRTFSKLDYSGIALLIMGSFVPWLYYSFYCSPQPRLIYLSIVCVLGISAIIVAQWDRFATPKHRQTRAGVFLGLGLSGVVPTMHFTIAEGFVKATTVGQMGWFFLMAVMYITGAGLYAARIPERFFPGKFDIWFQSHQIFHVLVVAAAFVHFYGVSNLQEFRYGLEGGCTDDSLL

- Kd (AdipoR1 (Mus musculus)): 1.14 nM
- Kd (AdipoR2 (Mus musculus)): 14.4 nM
Substance: globular adiponectin trimer globular domain (from UniProt Q60994)
